Data as given in PMC4632003, “Mitofilin and CHCHD6 physically interact with Sam50 to sustain cristae structure” (Scientific Reports, 2015).

B3: GST-tagged Sam50 (natural protein, human, UniProt Q9Y512 1-469, looked up)
chain: MGTVHARSLEPLPSSGPDFGGLGEEAEFVEVEPEAKQEILENKDVVVQHVHFDGLGRTKDDIIICEIGDVFKAKNLIEVMRKSHEAREKLLRLGIFRQVDVLIDTCQGDDALPNGLDVTFEVTELRRLTGSYNTMVGNNEGSMVLGLKLPNLLGRAEKVTFQFSYGTKETSYGLSFFKPRPGNFERNFSVNLYKVTGQFPWSSLRETDRGMSAEYSFPIWKTSHTVKWEGVWRELGCLSRTASFAVRKESGHSLKSSLSHAMVIDSRNSSILPRRGALLKVNQELAGYTGGDVSFIKEDFELQLNKQLIFDSVFSASFWGGMLVPIGDKPSSIADRFYLGGPTSIRGFSMHSIGPQSEGDYLGGEAYWAGGLHLYTPLPFRPGQGGFGELFRTHFFLNAGNLCNLNYGEGPKAHIRKLAECIRWSYGAGIVLRLGNIARLELNYCVPMGVQTGDRICDGVQFGAGIRFL
notes: Sam50, human, full-length cDNA cloned into pGEX-6P-1; also called GST-Sam50; source: E. coli (BL21), purified (glutathione agarose)

What was measured:
[1] = biological target: T1, GST-tagged Sam50 (Homo sapiens (Human), UniProt Q9Y512); assay: GST pull-down
T1 chain: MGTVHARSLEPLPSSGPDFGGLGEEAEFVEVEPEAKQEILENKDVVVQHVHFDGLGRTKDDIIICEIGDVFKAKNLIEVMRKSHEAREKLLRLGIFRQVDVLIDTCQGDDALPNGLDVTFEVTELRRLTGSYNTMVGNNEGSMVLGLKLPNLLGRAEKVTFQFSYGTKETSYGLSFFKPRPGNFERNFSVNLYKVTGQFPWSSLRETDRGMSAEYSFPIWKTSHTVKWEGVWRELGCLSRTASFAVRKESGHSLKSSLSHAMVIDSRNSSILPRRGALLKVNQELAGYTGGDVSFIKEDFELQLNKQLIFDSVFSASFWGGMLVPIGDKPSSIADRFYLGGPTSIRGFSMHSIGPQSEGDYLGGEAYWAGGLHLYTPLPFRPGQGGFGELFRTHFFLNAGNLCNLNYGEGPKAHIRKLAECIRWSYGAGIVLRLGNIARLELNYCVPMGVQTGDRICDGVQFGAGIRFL

[2] = biological target: B3; assay: pull-down; GST pull-down: 10 μg purified GST-tagged protein, 10 μg His-tagged protein and glutathione Sepharose 4B in 1 ml PBS with protease inhibitor, overnight at 4 °C, washed five times with cold PBS; Western blot; details: both partners purified
[3] = biological target: T2, His-tagged Mitofilin 123-758 (human, UniProt Q16891 123-758); assay: as above; details: both partners purified
T2 construct: Mitofilin, human, residues 123-758, cloned into pET-28a; The methods of the pull-down name 'GST-Mitofilin' where results, legend and plasmids say His-tagged Mitofilin 123-758; its purification is not described; also called His-Mitofilin^123–758; source: E. coli
T2 sequence (looked up): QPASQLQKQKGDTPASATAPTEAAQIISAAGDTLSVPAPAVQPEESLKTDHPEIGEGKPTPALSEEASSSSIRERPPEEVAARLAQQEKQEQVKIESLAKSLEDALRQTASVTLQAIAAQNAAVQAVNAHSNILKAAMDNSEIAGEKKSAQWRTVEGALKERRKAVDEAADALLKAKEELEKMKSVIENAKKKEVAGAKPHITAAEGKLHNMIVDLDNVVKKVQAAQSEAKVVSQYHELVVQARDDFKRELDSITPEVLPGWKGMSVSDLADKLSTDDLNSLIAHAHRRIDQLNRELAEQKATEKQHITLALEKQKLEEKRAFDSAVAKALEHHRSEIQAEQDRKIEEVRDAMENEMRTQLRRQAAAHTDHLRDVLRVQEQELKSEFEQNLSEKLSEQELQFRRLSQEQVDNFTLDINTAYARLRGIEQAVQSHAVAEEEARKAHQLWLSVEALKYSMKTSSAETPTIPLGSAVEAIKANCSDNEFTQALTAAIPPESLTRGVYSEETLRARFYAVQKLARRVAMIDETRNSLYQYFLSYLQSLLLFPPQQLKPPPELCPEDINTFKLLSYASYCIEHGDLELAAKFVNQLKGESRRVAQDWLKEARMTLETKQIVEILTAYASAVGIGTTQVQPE

B1: His-tagged full-length CHCHD6 (natural protein, human, UniProt Q9BRQ6 1-235, looked up)
chain: MGSTESSEGRRVSFGVDEEERVRVLQGVRLSENVVNRMKEPSSPPPAPTSSTFGLQDGNLRAPHKESTLPRSGSSGGQQPSGMKEGVKRYEQEHAAIQDKLFQVAKREREAATKHSKASLPTGEGSISHEEQKSVRLARELESREAELRRRDTFYKEQLERIERKNAEMYKLSSEQFHEAASKMESTIKPRRVEPVCSGLQAQILHCYRDRPHEVLLCSDLVKAYQRCVSAAHKG
notes: CHCHD6, human, full length, cloned into pET-28a; also called His-CHCHD6; source: E. coli (BL21), purified (Nickel-NTA agarose)
- binding result [1]: binds
- binding result [2]: binds

B2: His-tagged CHCHD6 CΔ46 variant (protein)
chain: MGSTESSEGRRVSFGVDEEERVRVLQGVRLSENVVNRMKEPSSPPPAPTSSTFGLQDGNLRAPHKESTLPRSGSSGGQQPSGMKEGVKRYEQEHAAIQDKLFQVAKREREAATKHSKASLPTGEGSISHEEQKSVRLARELESREAELRRRDTFYKEQLERIERKNAEMYKLSSEQFHEAASKMESTIK
- binding result [1]: no binding

Binder: B3
- binding result [3]: binds

B4: His-tagged CHCHD6 NΔ15 variant (domain or fragment, human, UniProt Q9BRQ6 16-235, looked up)
chain: VDEEERVRVLQGVRLSENVVNRMKEPSSPPPAPTSSTFGLQDGNLRAPHKESTLPRSGSSGGQQPSGMKEGVKRYEQEHAAIQDKLFQVAKREREAATKHSKASLPTGEGSISHEEQKSVRLARELESREAELRRRDTFYKEQLERIERKNAEMYKLSSEQFHEAASKMESTIKPRRVEPVCSGLQAQILHCYRDRPHEVLLCSDLVKAYQRCVSAAHKG
notes: CHCHD6, human, deletion variant that lacks the N-terminal 15 amino acids; cloned into pET-28a; source: E. coli (BL21), purified (Nickel-NTA agarose); not shown: His tag, N-terminal, kept
- binding result [1]: binds
- binding result [2]: binds
